In patent CN109021104A (SHANGHAI CHEMPARTNER CO LTD; GATEWAY BIOTECHNOLOGY SHANGHAI …, dated 2018):

Biological target: T1, 人源PDGFRβ全长 (human PDGFRβ, full length, on cells) (human, UniProt P09619 33-1106)
T1 construct: whole, on cells; also called HEK293-hPDGFRβ稳定细胞株; 细胞表面的PDGFRβ
Assay: flow cytometry on HEK293-hPDGFRβ cells, Alexa488 secondary antibody

T1 sequence (P09619 33-1106): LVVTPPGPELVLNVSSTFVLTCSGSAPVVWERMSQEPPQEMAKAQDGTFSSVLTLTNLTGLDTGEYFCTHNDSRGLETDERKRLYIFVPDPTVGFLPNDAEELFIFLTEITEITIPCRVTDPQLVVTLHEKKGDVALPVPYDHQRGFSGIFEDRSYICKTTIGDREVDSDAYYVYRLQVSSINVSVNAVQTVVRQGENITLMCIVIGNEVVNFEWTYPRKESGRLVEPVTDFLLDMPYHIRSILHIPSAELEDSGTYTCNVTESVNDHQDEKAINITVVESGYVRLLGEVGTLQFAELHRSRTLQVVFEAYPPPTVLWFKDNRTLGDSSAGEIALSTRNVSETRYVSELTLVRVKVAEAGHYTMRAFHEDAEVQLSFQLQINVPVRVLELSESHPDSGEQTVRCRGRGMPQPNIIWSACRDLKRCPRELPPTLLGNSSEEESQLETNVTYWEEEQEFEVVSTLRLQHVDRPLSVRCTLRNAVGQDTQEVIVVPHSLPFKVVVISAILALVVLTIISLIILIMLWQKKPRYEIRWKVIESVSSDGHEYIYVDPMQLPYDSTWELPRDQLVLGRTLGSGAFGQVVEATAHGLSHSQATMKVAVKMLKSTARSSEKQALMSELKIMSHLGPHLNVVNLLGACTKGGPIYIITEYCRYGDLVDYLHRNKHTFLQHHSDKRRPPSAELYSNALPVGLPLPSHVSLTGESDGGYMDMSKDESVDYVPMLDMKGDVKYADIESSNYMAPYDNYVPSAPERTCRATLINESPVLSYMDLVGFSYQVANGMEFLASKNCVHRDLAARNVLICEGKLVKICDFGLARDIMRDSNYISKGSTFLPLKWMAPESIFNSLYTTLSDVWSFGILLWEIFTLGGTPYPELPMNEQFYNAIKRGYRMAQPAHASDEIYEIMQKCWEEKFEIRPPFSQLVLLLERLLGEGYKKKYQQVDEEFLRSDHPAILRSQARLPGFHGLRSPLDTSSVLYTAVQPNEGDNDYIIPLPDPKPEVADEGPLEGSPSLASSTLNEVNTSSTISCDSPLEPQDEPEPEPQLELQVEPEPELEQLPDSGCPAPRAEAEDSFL

B1: 39E10E12B3 (antibody, V domains shown)
VH: EVQLVESGGGVVQPGRSLRLSCAASGFTFSSYGMHWVRQAPGKGLEWVAVIWYDGSNKYYADSVKGRFTISRDNSKNTLYLQMNSLRAEDTAVYYCAVTGDVDYWGQGTLVTVSS
notes: Heavy-chain-only monoclonal antibody (no light chain), purified from a hybridoma made from HCAb transgenic mice; also called 重链抗体39E10E12B3; PDGFRβ抗体
B1: binds.
